Test results as given in patent US12072338B2, “Pharmaceutical peptides for the treatment of inflammatory diseases” (PROTAGONISTS LTD., priority 2007, dated 2024).

Columns and labels:
Eotaxin 3 = biological target: T1, Eotaxin 3 (Homo sapiens, UniProt Q9Y258); experiment: Micro-array analysis of chemokine binding peptides: Eotaxin 3; conditions: limit = start of the upper 75% of that peptide's response range
T1 construct: purchased 300-48
T1 sequence (Q9Y258 24-94): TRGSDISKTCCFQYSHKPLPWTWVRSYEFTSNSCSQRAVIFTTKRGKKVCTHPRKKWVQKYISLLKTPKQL
Description: (§1) (1) Printing: Chemokine (CK) solution (in water) was serially diluted with Print Reagent (GenTel BioSurfaces USA) to final concentrations of 50 μg and 25 μg/ml. BSA/BSA-Biotin control solutions (in water) were diluted with Print Reagent to 100 μg/ml. Amplified stock of M13 phage control (M13KEgIII Cloning Vector, New England Biolabs, Cat.No.E8101S) was stored in Tris Buffered Saline (TBS; pH7.5, 4° C.) and diluted with Print Reagent to the working titre (10^8 pfu/μl). An automated spotting robot (16 pin print tool, 0.4 mm head; BioRobotics, UK) was used to print the CK/BSA control/M13 control, 5 repeats per sample (CK 25 μg/ml and 50 μg/ml; BSA 100 μg/ml; M13 20 μl), on PATH Protein Microarray Slides (GenTel, Prod.No. 2-1005/-1025) at […], and 50-70% relative humidity. Printed micro-array slides were stored at Room Temperature (RT) or 4° C. for at least 24 h before use.
(§2) (2) Blocking: Block Buffer (500 μl/partition; PATHblock, GenTel, Prod.No. 2-1014) was applied to the slide for 1 hour at room temp (RT). After removal of Block Buffer, the slide was air dried for 25 minutes;
(§3) (3) Phage Presented Peptide Binding: Amplified recombinant phage stock was stored in TBS and diluted with Wash Buffer to working titer (10^7 pfu/μl). Recombinant phage suspension (300 μl) was applied per partition and incubated at RT for 1 hour with gentle agitation.
(§4) (4) First Washing: The slides were washed twice with Wash Buffer 300 μl/partition).
(§5) (5) Primary Antibody (Ab) Labeling: The slides were incubated with the Primary Ab (1 mg/ml diluted ×2500 (Wash Reagent), 300 μl; Mouse Anti-M13 monoclonal Ab; Amersham Biosciences, UK; Product Code 27-9420-01) for 45 minutes at RT.
(§6) (6) Second Washing: The slides were washed twice with Wash Buffer (300 μl/partition).
(§7) (7) Secondary Ab Labeling: The slides were incubated with Secondary Ab (1.5 mg/ml diluted ×5000 (Wash Reagent), 300 μl; Cy3-conjugated AffiniPure Goat Anti-Mouse IgG; Jackson ImmunoReserch Labs, USA; Product Code 115-165-062).
(§8) (8) Third Washing: The slides were washed twice with Wash Buffer (300 μl/partition).
(§9) (9) Rinse: the slides were rinsed twice with Rinse Buffer (PATHrinse, GenTel, Prod.No. 2-1018) then dried well.
(§10) (10) Scanning: The peptide-bound, labeled slide was scanned (Laser Intensity 80%, Gain 80%, Resolution 10 μm) with a ScanArray Life Scanner (Packard BioChip Technologies, USA).
(§11) (11) Analysis: Quantitative analysis of micro-array was performed by the SpotReader program of Niles Scientific (USA) and presented as Relative Fluorescence (RF) as a function of CK concentration. Micro-array readout (Cy3 fluorescence) was quantified to determine the relative binding affinities of a CBP for the CKs and by inference, the specificity of the CBP for binding to a CK.

Fractalkine = biological target: T2, Fractalkine (Homo sapiens, UniProt P78423); experiment: Micro-array analysis of chemokine binding peptides: Fractalkine
T2 construct: purchased 300-31
T2 sequence (P78423 25-100 limits assumed): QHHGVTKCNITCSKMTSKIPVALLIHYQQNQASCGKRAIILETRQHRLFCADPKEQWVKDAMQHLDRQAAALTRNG
Description: as §1, §2, §3, §4, §5, §6, §7, §8, §9, §10, §11

IL-8 = experiment: Micro-array analysis of chemokine binding peptides: IL-8; conditions: limit = start of the upper 75% of that peptide's response range
Description: as §1, §2, §3, §4, §5, §6, §7, §8, §9, §10, §11

MCP-2 = biological target: T3, MCP-2 (Homo sapiens, UniProt P80075); experiment: Micro-array analysis of chemokine binding peptides: MCP-2; conditions: limit = start of the upper 75% of that peptide's response range
T3 construct: purchased 300-15
T3 sequence (P80075 24-99): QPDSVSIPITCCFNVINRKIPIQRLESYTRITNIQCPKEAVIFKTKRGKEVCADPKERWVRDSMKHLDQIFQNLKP
Description: as §1, §2, §3, §4, §5, §6, §7, §8, §9, §10, §11

MCP-4 = biological target: T4, MCP-4 (Homo sapiens, UniProt Q99616); experiment: Micro-array analysis of chemokine binding peptides: MCP-4; conditions: limit = start of the upper 75% of that peptide's response range
T4 construct: purchased 300-24
Description: as §1, §2, §3, §4, §5, §6, §7, §8, §9, §10, §11

RANTES = biological target: T5, RANTES (Homo sapiens, UniProt P13501); experiment: Micro-array analysis of chemokine binding peptides: RANTES; conditions: limit = start of the upper 75% of that peptide's response range
T5 construct: purchased 300-06
T5 sequence (P13501 24-91): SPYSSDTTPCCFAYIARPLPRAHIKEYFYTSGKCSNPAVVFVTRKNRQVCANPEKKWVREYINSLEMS
Description: as §1, §2, §3, §4, §5, §6, §7, §8, §9, §10, §11

Mig = biological target: T6, Mig (Homo sapiens, UniProt Q07325); experiment: Micro-array analysis of chemokine binding peptides: Mig; conditions: limit = start of the upper 75% of that peptide's response range
T6 construct: purchased 300-26
T6 sequence (Q07325 23-125): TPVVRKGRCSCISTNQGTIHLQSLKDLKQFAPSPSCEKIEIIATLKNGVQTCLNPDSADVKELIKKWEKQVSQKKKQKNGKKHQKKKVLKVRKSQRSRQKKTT
Description: as §1, §2, §3, §4, §5, §6, §7, §8, §9, §10, §11

Exodus-2 = biological target: T7, Exodus-2 (Homo sapiens, UniProt O00585); experiment: Micro-array analysis of chemokine binding peptides: Exodus-2
T7 construct: purchased 300-35
T7 sequence (O00585 24-134): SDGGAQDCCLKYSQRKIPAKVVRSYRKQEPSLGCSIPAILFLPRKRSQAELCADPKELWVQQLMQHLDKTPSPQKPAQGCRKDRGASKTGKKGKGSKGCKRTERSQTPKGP
Description: as §1, §2, §3, §4, §5, §6, §7, §8, §9, §10, §11

SDF1-β = biological target: T8, SDF1-β (Homo sapiens, UniProt P48061); experiment: Micro-array analysis of chemokine binding peptides: SDF1-β
T8 construct: purchased 300-28b
Description: as §1, §2, §3, §4, §5, §6, §7, §8, §9, §10, §11

IP-10 = biological target: T9, IP-10 (Homo sapiens, UniProt P02778); experiment: Micro-array analysis of chemokine binding peptides: IP-10; conditions: limit = start of the upper 75% of that peptide's response range
T9 construct: purchased 300-12
T9 sequence (P02778 22-98): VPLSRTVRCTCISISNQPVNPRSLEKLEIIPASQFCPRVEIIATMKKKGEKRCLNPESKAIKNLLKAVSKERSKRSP
Description: as §1, §2, §3, §4, §5, §6, §7, §8, §9, §10, §11

BCA-1 = biological target: T10, BCA-1 (Homo sapiens, UniProt O43927); experiment: Micro-array analysis of chemokine binding peptides: BCA-1
T10 construct: purchased 300-47
T10 sequence (O43927 23-109): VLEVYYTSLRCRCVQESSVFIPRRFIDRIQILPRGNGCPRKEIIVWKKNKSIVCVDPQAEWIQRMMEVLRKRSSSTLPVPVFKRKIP
Description: as §1, §2, §3, §4, §5, §6, §7, §8, §9, §10, §11

Lymphotactin = biological target: T11, Lymphotactin (Homo sapiens, UniProt P47992); experiment: Micro-array analysis of chemokine binding peptides: Lymphotactin
T11 construct: purchased 300-20
T11 sequence (P47992 22-114): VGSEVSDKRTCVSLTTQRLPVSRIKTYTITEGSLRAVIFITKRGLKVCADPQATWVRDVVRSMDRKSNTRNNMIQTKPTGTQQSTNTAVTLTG
Description: as §1, §2, §3, §4, §5, §6, §7, §8, §9, §10, §11

TECK = biological target: T12, TECK (Homo sapiens, UniProt O15444); experiment: Micro-array analysis of chemokine binding peptides: TECK
T12 construct: purchased 300-45
T12 sequence (O15444 24-150): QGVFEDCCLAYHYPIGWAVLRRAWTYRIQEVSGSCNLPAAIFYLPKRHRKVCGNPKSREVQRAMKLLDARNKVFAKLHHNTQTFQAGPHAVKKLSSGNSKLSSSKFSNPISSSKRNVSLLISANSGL
Description: as §1, §2, §3, §4, §5, §6, §7, §8, §9, §10, §11

[1] = tested on: Adjuvant-Induced Arthritis (AIA) rats; experiment: Adjuvant Induced Arthritis (AIA) rat model, Clinical Score; assay type: in vivo; conditions: 25 μg IP on days 7-18
Description: Peptides were tested in a rat model of AIA for their anti-inflammatory effects.
Disease Induction: AIA was induced in female Lewis rats aged 7-8 weeks by injection of heat-killed Mycobacerioum tuberculosis (Mt strain H37Ra, Difco Laboratories, USA) dispersed in incomplete Freund's adjuvant to a final concentration of 10 mg/ml (100 μl) at the base of the tail on day 0.
Measurement: Clinical Score (CS, 0-4) for each limb based on (a) joint inflammation, (b) redness, (c) deformity.
Efficacy Protocol 1 (5 rats per group). Peptide/control compound was injected intra-peritoneally (IP, 200 μl) on days 7-11 and 14-18.
Rats were sacrificed (CO2 inhalation) on day 43.
Efficacy Protocol 2 (8 rats per group). Group 1: peptide/PBS was injected intra-peritoneally (IP, 200 μl) on days 7-18; Group 2: PBS was injected IP on days 7-18; Group 3: Dexamethasone (Dexa) was injected IP on days 11 (Clinical Score (CS)1) and 13. Rats were sacrificed on day 43.
Combination Efficacy Protocol 1 (8 rats per group). Group 1: peptide injected IP on days 7-18; Group 2: PBS injected IP on days 7-18; Group 3: Dexa injected IP on day 11 (CS 1) and day 13; Group 4: Dexa injected IP on days 11 and 13 then peptide injected on days 14-22; Group 5: Dexa injected IP on days 11 and 13 then PBS injected on days 14-22.
Combination Efficacy Protocol 2 (8 rats per group). Group 1: peptide injected IP on days 7-18; Group 2: PBS injected IP on days 7-18; Group 3: Dexa injected IP on day 11 (CS 1) and day 13 then PBS on days 14-22; Group 4: PBS injected IP on days 7-10,12,14; Dexa injected on days 11, 13. Peptide injected on days 15-19.
Combination Efficacy Protocol 3 (8 rats per group). Group 1: peptide injected IP on days 7-18; Group 2: PBS injected IP on days 7-18; Group 3: Dexa injected IP on day 11 (CS 1) and day 13 then PBS on days 14-22; Group 4: peptide injected IP on days 7-10,12,14; Dexa injected on days 11, 13. Peptide injected on days 15-19.
Control Reagents for Adjuvant Induced Arthritis: Anti-Inflammatory Control: Dexamethasone Sodium Phosphate (Dexacort Forte, Teva) was dissolved in Phosphate Buffer Saline (PBS, GIBCO) to a final concentration of 1 mg/ml and injected in 200 μl (200 μg).
Negative Control: Phosphate Buffer Saline (PBS).

I-TAC = biological target: T13, I-TAC (Homo sapiens, UniProt O14625); experiment: Micro-array analysis of chemokine binding peptides: I-TAC; conditions: limit = start of the upper 75% of that peptide's response range
T13 construct: purchased 300-46
T13 sequence (O14625 22-94): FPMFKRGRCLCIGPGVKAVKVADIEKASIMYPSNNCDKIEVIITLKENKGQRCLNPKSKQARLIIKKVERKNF
Description: as §1, §2, §3, §4, §5, §6, §7, §8, §9, §10, §11

I-309 = biological target: T14, I-309 (Homo sapiens, UniProt P22362); experiment: Micro-array analysis of chemokine binding peptides: I-309; conditions: limit = start of the upper 75% of that peptide's response range
T14 construct: purchased 300-37
T14 sequence (P22362 24-96): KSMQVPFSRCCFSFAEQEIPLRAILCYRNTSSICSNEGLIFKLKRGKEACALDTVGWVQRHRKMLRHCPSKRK
Description: as §1, §2, §3, §4, §5, §6, §7, §8, §9, §10, §11

IL-8, sequence (P10145 28-99 limits assumed): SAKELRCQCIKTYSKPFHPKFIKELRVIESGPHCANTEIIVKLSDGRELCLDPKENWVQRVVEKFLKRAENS
T8 sequence (P48061 22-93): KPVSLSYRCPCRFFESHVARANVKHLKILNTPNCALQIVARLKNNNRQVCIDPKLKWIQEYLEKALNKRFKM
T4 sequence (Q99616 17-98): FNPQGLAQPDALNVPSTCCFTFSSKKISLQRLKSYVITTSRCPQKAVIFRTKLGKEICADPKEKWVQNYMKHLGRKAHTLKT

Substance	binding to Eotaxin 3 with relatively high affinity (Relative Fluorescence Units) (Eotaxin 3)	binding to Fractalkine, stated in words (Fractalkine)	binding to IL-8 with relatively high affinity (Relative Fluorescence Units) (IL-8)	binding to MCP-2 with relatively high affinity (Relative Fluorescence Units) (MCP-2)	binding to MCP-4 with relatively high affinity (Relative Fluorescence Units) (MCP-4)	binding to RANTES with relatively high affinity (Relative Fluorescence Units) (RANTES)	binding to Mig with relatively high affinity (Relative Fluorescence Units) (Mig)	binding to Exodus-2, stated in words (Exodus-2)	binding to SDF1-β, stated in words (SDF1-β)	binding to IP-10 with relatively high affinity (Relative Fluorescence Units) (IP-10)	binding to BCA-1, stated in words (BCA-1)	binding to Lymphotactin, stated in words (Lymphotactin)	binding to TECK, stated in words (TECK)	maximal anti-inflammatory effect [1]	binding to I-TAC with relatively high affinity (Relative Fluorescence Units) (I-TAC)	binding to I-309 with relatively high affinity (Relative Fluorescence Units) (I-309)
DYD [Ph-p33]	> 15,000 RFU	bound	> 15,000 RFU	> 15,000 RFU	> 15,000 RFU	> 15,000 RFU	> 15,000 RFU	bound	bound	> 15,000 RFU	bound	bound	bound			
WVFGVHFCK [Ph-p8.77]	> 15,000 RFU	bound	> 15,000 RFU	> 15,000 RFU	> 15,000 RFU		> 15,000 RFU		bound		bound		bound	23%	> 15,000 RFU	> 15,000 RFU
